The supplement of paper PMC9732359
± gives the uncertainty stated by the source.

Assay: protein stability index of a GFP-peptide fusion (yeast GPS) (PSI 1-4); higher = more stable; sorted into four equal gates, so the index is relative within each strain
Conditions: san1∆
Summary of the method: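 Plasmids isolated from each sorting gate were PCR-amplified and Illumina-sequenced, and barcodes assigned the reads to strains. The gates, four of equal size, were set by GFP/Cherry fluorescence ratio on mid-log cultures in leucine-free medium. These cultures were yeast carrying a pooled library of tiled 17-residue yeast protein peptides fused downstream of GFP on a plasmid that also expresses Cherry. The protein stability index is the sum of every gate's read frequency times its gate number.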
For ILGQTMSIGTGSFKVVK [RPO31], the protein stability index was 1.97 ± 0.12. ILIESRIHRLARYYRTV [RPS13] gave a protein stability index of 2.74 ± 0.087. In the case of ILKKSLMTSHTKGDTSK [RTT102], the protein stability index is reported as 2.81 ± 0.085. ILKTLERSICALGEFAD [YML031W/NDC1] showed a protein stability index of 3.05 ± 0.065. Work on ILNELEVFIGRVKDQDG [YJR042W/NUP85] yielded a protein stability index of 3 ± 0.12. ILNSHFDALRSLDDNST [YJL041W/NSP1] gave a protein stability index of 2.53 ± 0.064. In the case of ILQIREEIPSKSWDDSV [RRP6], the protein stability index is reported as 2.32 ± 0.084. Work on ILQNEHDYWNKIMQSIS [SRB4] yielded a protein stability index of 1.92 ± 0.11. With ILRDYGPQEAANAMNRM [RPO31] the protein stability index was 2.86 ± 0.22. With ILRKSFDFLMNMPNCDY [RPN2] the protein stability index was 1.23 ± 0.12. Sequence ILRSIPDKLLGVILMFA [COB] has a protein stability index of 1.65 ± 0.069. For ILSEILCQINKCSTRGL [YML103C/NUP188], the protein stability index was 1.98 ± 0.097. With ILSNVDLAMANSLRRVM [RPB3] the protein stability index was 2.66 ± 0.071. For ILTIIEEYKKSLYAYCH [GRR1], the protein stability index was 2.27 ± 0.26. ILTTAVGLVSPSFMLKH [RPN1] gave a protein stability index of 1.3 ± 0.13. ILVLALEDLKDVYASKV [PRP8] gave a protein stability index of 2.85 ± 0.081. Work on ILYSFKLSGKLLKEEKI [YML103C/NUP188] yielded a protein stability index of 2.11 ± 0.1. In the case of IMELPGVYSDDELLSQL [SRP68], the protein stability index is reported as 3.22 ± 0.045. IMQEAGLRAVRKNRYVI [RPT3] gave a protein stability index of 2.91 ± 0.083. INCNKETIENVKLQMIK [ECM29] showed a protein stability index of 2.93 ± 0.089. For INELFKKYTQNNPLLLI [RPN8], the protein stability index was 1.37 ± 0.14. INELVLENFKSYAGKQV [SMC4] showed a protein stability index of 2.39 ± 0.079. INESAENFSNGISLVME [MED1] gave a protein stability index of 3.07 ± 0.055. For INGWELTKAQKYLDQVL [RPL17B], the protein stability index was 2.86 ± 0.1. Sequence INHKINNKITQLIAKNV [SIR3] has a protein stability index of 2.22 ± 0.077. For INIKYLRLDGHTKSDER [SNF2], the protein stability index was 2.29 ± 0.098. ININEFALPAGSPKSAT [CDC53] showed a protein stability index of 2.64 ± 0.07. Sequence INKMVGNRYLEKRLNLR [RPL21A] has a protein stability index of 2.92 ± 0.092. For INSAPDFTQEDELRKQE [ISW2], the protein stability index was 3.4 ± 0.062. Sequence INSTKNGKDNNNESNKN [MED2] has a protein stability index of 3.22 ± 0.038. For INVDNDPFFAQSEDLSH [YML103C/NUP188], the protein stability index was 3.15 ± 0.044. Sequence IPAWFLNRQNDITDGKD [RPS18A] has a protein stability index of 2.76 ± 0.2. For IPISSETTIDDLPISST [SMC1], the protein stability index was 2.68 ± 0.047. Sequence IPLGKNVVVKWQGKPVF [RIP1] has a protein stability index of 3.42 ± 0.07. For IPMDFIRNVLVTVDQYV [SSN2], the protein stability index was 1.33 ± 0.091. In the case of IPNLTAKPFQVTKEYFQ [FAS1], the protein stability index is reported as 3.04 ± 0.061. With IPPPMPKNQQYRAFGSI [MED7] the protein stability index was 2.42 ± 0.1. Work on IPRHLQLAIRNDDELNK [HTA1] yielded a protein stability index of 3.28 ± 0.059. Work on IPSQRGTSTTHGSISPQ [SIR3] yielded a protein stability index of 2.37 ± 0.036. With IPTLAIDSVEVETNTTV [RPB3] the protein stability index was 2.94 ± 0.083. Work on IPVEILVRRLSDIKQGY [PRE9] yielded a protein stability index of 2.79 ± 0.061. Sequence IPVGDNTVVGISGDISD [PRE4] has a protein stability index of 2.85 ± 0.16. With IPYAAKLLFQELMAMNI [RPB2] the protein stability index was 1.64 ± 0.29. With IPYGPDFDNIEFKKIPR [SEC65] the protein stability index was 2.87 ± 0.075. With IQAVFCLTKFQDEEQTE [YCG1] the protein stability index was 2.64 ± 0.057. For IQCQIDKLYIHFVQEEP [RGR1], the protein stability index was 2.85 ± 0.083. With IQFGAKNMFEKKASKVT [ISW2] the protein stability index was 2.68 ± 0.074. Work on IQKESTLHLVLRLRGGG [RPS31] yielded a protein stability index of 1.75 ± 0.096. Work on IQLLDENVGTRLLPINV [MED11] yielded a protein stability index of 3.14 ± 0.066. IQLSTVNRQSPLFFVDL [RGR1] showed a protein stability index of 1.9 ± 0.12. With IQPTAKVVYIQRRSWRQ [DIS3] the protein stability index was 1.31 ± 0.13. Sequence IQQLISQFLKRVHANLQ [SNF11] has a protein stability index of 1.52 ± 0.068. With IQRTTESLILKWDNQSA [RGR1] the protein stability index was 2.36 ± 0.059. With IQSKAVEQGYEDAFNFW [YCG1] the protein stability index was 3.57 ± 0.12. In the case of IQYVTYLLTQQQIWKSP [SOH1], the protein stability index is reported as 1.71 ± 0.074. With IRAELLNDRKVLFAAYK [RPB11] the protein stability index was 2.45 ± 0.098. In the case of IRGILMASGSTTFTKVA [PRP8], the protein stability index is reported as 2.02 ± 0.16. With IRIYFTEKDDNKTNNED [NUT1] the protein stability index was 2.84 ± 0.13. Sequence IRKGPAPLNLEIPAYEF [RIP1] has a protein stability index of 2.67 ± 0.06. Sequence IRKLTLRDTFIELDQVL [RPO21] has a protein stability index of 2.7 ± 0.074. Work on IRKYGLNICRQCFREKA [RPS29A] yielded a protein stability index of 1.32 ± 0.11. For IRLANESSELNKDSIEE [CSN12], the protein stability index was 3.34 ± 0.065. For IRLSKILEDDFAVALKN [CDC53], the protein stability index was 3.04 ± 0.072. In the case of IRPTELRLPFSAAMSID [PRP8], the protein stability index is reported as 1.78 ± 0.057. Work on IRSSRSRGIVIGSGAMS [RPP1] yielded a protein stability index of 2.63 ± 0.091. ISHDDLQAVAVAVSTKK [FAS2] showed a protein stability index of 1.19 ± 0.12. In the case of ISHIEKRIESLQKDLQR [SMC1], the protein stability index is reported as 1.75 ± 0.09. Sequence ISKKIIGMSLLMRTFLY [SIR3] has a protein stability index of 1.99 ± 0.083. ISKSLTFSQESGLMVIL [RRI2] gave a protein stability index of 2.29 ± 0.094. For ISLPKGKGIKLSIAEER [RPS4A], the protein stability index was 2.62 ± 0.081. ISNYNTKYTDDMATGSN [SRB8] gave a protein stability index of 3.21 ± 0.058. Sequence ISPKGGRRISENGQRDL [RPS19A] has a protein stability index of 3.19 ± 0.13. For ISPKIWCAGAGTAADTE [PUP1], the protein stability index was 2.42 ± 0.12. With ISQKLHDSILHSRILPK [RRP43] the protein stability index was 2.62 ± 0.037. Work on ISQLYSDAVMAEHSQNK [YJL041W/NSP1] yielded a protein stability index of 2.75 ± 0.096. ISSSTQCLRFLKETVIP [POP6] gave a protein stability index of 1.26 ± 0.22. With ISTYISTDELVGSPLTV [POP8] the protein stability index was 2.27 ± 0.16. Work on ISVIETIRVVTENKIFV [RPN5] yielded a protein stability index of 1.9 ± 0.27. Sequence ISYKKGAASNRTKFVRS [RPL36A] has a protein stability index of 3.13 ± 0.11. Work on ITATLVGTVRCEEEKKT [CSL4] yielded a protein stability index of 1.67 ± 0.16. Work on ITDKGTVDGRLYQLFKT [YJL039C/NUP192] yielded a protein stability index of 3.3 ± 0.069. For ITDKTIESIVNLAPKLR [GRR1], the protein stability index was 1.83 ± 0.086. Sequence ITHPGKMELVYVSDSDD [SIR4] has a protein stability index of 3.31 ± 0.085. For ITHQLNNKFANKIIPNV [RPC25], the protein stability index was 2.93 ± 0.053. With ITKFALFAESHDVLQKL [YML103C/NUP188] the protein stability index was 2.02 ± 0.13. For ITLVEPEILRFKVYEPL [RPS16A], the protein stability index was 2.54 ± 0.22. ITNTDETITTKRVPNPN [SWP82] gave a protein stability index of 3.13 ± 0.078. Sequence ITSFDQDVDDAHAIDQM [POP8] has a protein stability index of 1.15 ± 0.093. ITSFGFGQKGGQAIVVH [FAS2] showed a protein stability index of 1.52 ± 0.088. ITSINVENDTFIERNFT [FAS2] showed a protein stability index of 3.17 ± 0.072. For ITVTAKQQPTMQANKLD [SWI3], the protein stability index was 2.82 ± 0.07. Work on ITYGIIKVPTYIRKLIS [SRB8] yielded a protein stability index of 1.42 ± 0.2. IVEEDLEPFEASKETAE [FAS2] showed a protein stability index of 3.1 ± 0.087. IVEINNVSNTFNKTTNI [YJL041W/NSP1] gave a protein stability index of 2.71 ± 0.046. With IVFDNTDKSNSPIGFTN [SMC2] the protein stability index was 3.15 ± 0.052. Work on IVFHNEFSEHTFVERLP [DIS3] yielded a protein stability index of 2.64 ± 0.058. Sequence IVNNDLPTTVVSNPGDN [MED2] has a protein stability index of 2.82 ± 0.052. In the case of IVPSMTHLEIEPFTILG [RET1], the protein stability index is reported as 2.29 ± 0.1. Work on IVRPAKGVATTREKVLE [RRP46] yielded a protein stability index of 2.21 ± 0.12. IVTALLESDVNIALVSK [SRP54] showed a protein stability index of 3.24 ± 0.12. IWVGEWKEVLAHNPELE [RPO31] showed a protein stability index of 2.74 ± 0.072. With IYAKYGAKGSTLIVVPF [FAS2] the protein stability index was 2.34 ± 0.11.

Same assay, conditions: ubr1∆
For ILGQTMSIGTGSFKVVK [RPO31], the protein stability index was 2.99 ± 0.15.
